Assay results: paper PMC4956467

Columns and labels:
Test in all cases: BLI
[1] = target: HIV-1 viral infectivity factor (Vif), full length, refolded, biotinylated (HIV-1) (UniProt P12504)
[2] = target: A3Fc-CD2 Y308A (human, UniProt Q9HC16 197-221+Q8IUX4:220-373, Y308A;internal_change)
[3] = target: A3Fc-CD2 D313A (human, UniProt Q9HC16 197-221+Q8IUX4:220-373, D313A;internal_change)
[4] = target: A3Fc-CD2 Y307A (human, UniProt Q9HC16 197-221+Q8IUX4:220-373, Y307A;internal_change)
[5] = target: A3Fc-CD2 Y314A (human, UniProt Q9HC16 197-221+Q8IUX4:220-373, Y314A;internal_change)
[6] = target: A3Fc-CD2 W310A (human, UniProt Q9HC16 197-221+Q8IUX4:220-373, W310A;internal_change)
[7] = target: A3Fc-CD2 F309A (human, UniProt Q9HC16 197-221+Q8IUX4:220-373, F309A;internal_change)

Row | Molecule | Kd [1] | Kd [2] | Kd [3] | Kd [4] | Kd [5] | Kd [6] | Kd [7]
1 | chimeric A3F C-terminal domain (A3Fc-CD2), wild type (from UniProt Q9HC16 197-221; Q8IUX4 218-373) (domain or fragment) | 1.1 µM | – | – | – | – | – | –
2 | A3Fc-CD2 L263A (from UniProt Q9HC16 197-221; Q8IUX4 218-373) (domain or fragment) | 1.1 µM | – | – | – | – | – | –
3 | TCCCTCAGACCCTTTTAGTCAGTGTGGAAAATCTCTAGCAGT (ssDNA) [42-mer ssDNA, viral U5 end of 3'-LTR] | – | 18 µM | 220 µM | 410 µM | 68 µM | 27 µM | 31 µM
